Assay [1] has as its system MDA-MB-231 cells. Kind of assay: DNA synthesis, BrdU Cell Proliferation ELISA. It is filed as cell-based, human. As to conditions: 10 ng/ml of each cytokine, 72 hrs. Here is the method:
(§1) Cells were seeded into 96-well dishes at a density of 1×10^4 cell per well in complete medium with varying doses of cmvIL-10, and then cell viability measured at the indicated time points using the Cell Titer Glo Assay kit according to manufacturer's instructions (Promega). DNA synthesis was measured in cells prepared in the same way using the BrdU Cell Proliferation ELISA Kit (Roche, Basel, Switzerland). For experiments using inhibitors, cells were cultivated in 96-well dishes as above with a final concentration of 10 μM inhibitor and BrdU incorporation evaluated after 72 hrs. For cell counts, cells were seeded into 6-well plates at a density of 2×10^5 cells per well, harvested via trypsinization, and counted using a hemacytometer at the indicated time points. The TACS Annexin V-FITC Detection Kit (Trevigen, Gaithersburg, Md.) was used to stain cells harvested from 70% confluent T75 flasks that had been treated with 100 μM etoposide for 48 hrs in the presence or absence of 100 ng/ml cmvIL-10. Cells were then analyzed via flow cytometry to detect fluorescence. For viability assays, Cell Titer Glo reagent was utilized to quantify cells that had been seeded into 96-well dishes at a density of 1×10^4 cell per well in complete medium with varying doses of etoposide in the presence or absence of 100 ng/ml cmvIL-10 as indicated

The target in the next assay is T1, CXCR4 (Homo sapiens, UniProt P61073).
T1 construct: HEK293 cells, which endogenously express both CXCR4 and IL-10R; endogenous in cells; host or cells: HEK293
Kind of assay: Calcium flux assay in HEK293 cells. In kind it is cell-based. As to conditions: CXCL12 0.1 μg/ml alone. Here is the method: Calcium flux assays were performed as described (Arnolds K L, et al. Virology 439:122-131.). Briefly, cells were resuspended in 2 mls calcium assay buffer (RPMI with 25 mM of HEPES) at a density of 5×10^5 cells/ml per sample. Each sample was labeled with 2 μl of Fluo-4AM (Invitrogen, Grand Island, N.Y.), wrapped in foil, at 37° C. for 30 minutes with agitation at 10-minute intervals. Following incubation, each sample was pelleted, resuspended in calcium assay buffer, and transferred into an eppendorf tube for flow cytometry using the BD C6 Accuri. Fluorescence intensity of each sample was measured for 20 seconds to establish baseline, then stimulus (CXCL12, in the presence or absence of cmvIL-10, as indicated) was added via micropipetting directly into the sample while fluorescence intensity was measured. Kinetic fluorescence intensity analysis was performed with FlowJo software v9.4.9 (FlowJo, Ashland, Oreg.). Purified recombinant cmvIL-10 was purchased from R&D Systems (Minneapolis, Minn.) and purified recombinant CXCL12 was purchased from Peprotech (Rocky Hill, N.J.). For each calcium flux assay, ionomycin (Sigma) was a positive control for Fluo-4AM loading and PBS served as a negative control for the addition of stimulus.

In a further assay the test system is HEK293 cells. Kind of assay: Transwell migration toward CXCL12. In kind it is cell-based, human. As to conditions: 4 hours, 5.0 μm filter. Here is the method: Transwell migration assays were performed by suspending cells at a density of 5×10^4 cells/ml in migration media (MEM or RPMI […] media plus 0.5% FBS). A total of 75 μl of cells was placed onto the upper chamber of a 96-well transwell system with 5.0 μm pores (Corning-Costar, Corning, N.Y.). The lower chamber contained 235 μl of migration media with CXCL12 plus or minus cmvIL-10 as indicated. Plates were incubated for four hours at 37° C., and then cells that traversed through the filter into the lower chamber were quantified via the addition of CellTitre-Glo reagent (Promega, Madison, Wis.) according to manufacturer's instructions.

Assay [2] relates to MDA-MB-231 cells. Kind of assay: Apoptosis, Annexin V-FITC flow cytometry. In kind it is cell-based, human. As to conditions: 100 μM etoposide, 48 hrs. Here is the method: as §1
The subject of a further assay is Stat3. Briefly: Western blot for Stat3 phosphorylation in MDA-MB-231 cells. It is filed as cell-based, human. As to conditions: 100 ng/ml, 15 min. Here is the method: (§2) For western blotting, cells were treated with 100 ng/ml cmvIL-10, hIL-10, IFNγ or PBS for 15 min, then harvested into cell lysis buffer (150 mM NaCl, 20 mM HEPES, 0.5% Triton-X-100, 1 mM NaOV4, 1 mM EDTA, 0.1% NaN3). Lysates were clarified, proteins were separated via SDS-PAGE, and then transferred to a nitrocellulose membrane. Then membrane was incubated in blocking solution (5% milk+1×TBS-T) for 1 hr, then probed with primary antibody at a 1:1000 dilution (total Stat3 or pStat3, total Stat1 or pStat1) in blocking solution overnight at 4° C. After washing, the membranes were incubated with a 1:2000 dilution of appropriate AP-conjugated secondary antibody and bands were detected using Western Blue stabilized AP substrate (Promega, Madison, Wis.). For analysis of secreted proteins, supernatants were collected at various time points, analyzed by SDS-PAGE and then immunoblotted as above for cmvIL-10, hIL-10, or serpin E1/PAI.

The test system of another assay is Stat1. Kind of assay: Western blot for Stat1 phosphorylation in MDA-MB-231 cells. It is filed as cell-based, human. As to conditions: 100 ng/ml, 15 min. Here is the method: as §2

T1 sequence (P61073 whole entry): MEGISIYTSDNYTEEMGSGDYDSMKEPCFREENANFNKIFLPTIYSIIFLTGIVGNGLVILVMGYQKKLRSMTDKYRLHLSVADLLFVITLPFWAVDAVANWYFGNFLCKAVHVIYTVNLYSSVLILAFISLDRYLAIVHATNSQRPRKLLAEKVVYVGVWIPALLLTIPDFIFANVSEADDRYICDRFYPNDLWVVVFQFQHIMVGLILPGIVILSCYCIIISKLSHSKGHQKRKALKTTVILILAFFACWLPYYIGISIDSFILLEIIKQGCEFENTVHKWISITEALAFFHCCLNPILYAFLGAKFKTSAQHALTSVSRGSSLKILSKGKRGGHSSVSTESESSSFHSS

With “IL-6: purified recombinant IL-6 from R&D Systems”, the “cell proliferation (BrdU incorporation)” value with MDA-MB-231 cells [1] is given as “inhibited cell growth”.

Turning to “CXCL12: purified recombinant CXCL12 chemokine from Peprotech”, in the assay with CXCR4, the “calcium mobilization (fluorescence)” value is recorded as “rapid but transient increase in fluorescence”. In the assay with HEK293 cells, the “CXCL12 dose giving maximal migration” value amounted to 0.1 ng/mL.

Take `COc1cc([C@@H]2c3cc4c(cc3[C@@H](O[C@@H]3O[C@@H]5CO[C@@H](C)O[C@H]5[C@H](O)[C@H]3O)[C@H]3COC(=O)[C@H]23)OCO4)cc(OC)c1O` [etoposide, reference compound]: in the assay on MDA-MB-231 cells [2], the “cells stained positive for Annexin V” value is 30.9%.

B1: IFNγ: purified recombinant interferon-gamma from R&D Systems (protein, UniProt P01579 24-161, looked up)
Interferon gamma: QDPYVKEAENLKKYFNAGHSDVADNGTLFLGILKNWKEESDRKIMQSQIVSFYFKLFKNFKDDQSIQKSVETIKEDMNVKFFNSNKKKRDDFEKLTNYSVTDLNVQRKAIHELIQVMAELSPAAKTGKRKRSQMLFRG
In the case of B1, the “83 kD band of phosphorylated Stat3 (pStat3)” value in the assay with Stat3 is given as “not”. In addition, the “cell proliferation (BrdU incorporation)” value in the assay with MDA-MB-231 cells [1] is listed as “inhibited cell growth”. In the assay on Stat1, the Stat1 phosphorylation result was “phosphorylated in response to IFNγ treatment only”.

These data come from patent US20180128830A1, “DETECTION OF HUMAN CYTOMEGALOVIRUS IN BREAST CANCER” (priority 2015, published 2018).
